The numbers were not newly measured in article PMC9028781, which cites them from elsewhere.

In general, Kd refers to the concentration at which binding is half-saturated.

Data set [1] concerns the target YopB (nanodisc-embedded) (Yersinia pestis) (UniProt Q06114).
For data set [2], the target named is Substance P (Homo sapiens) (UniProt P20366).
Sequence of Substance P (Homo sapiens) (P20366 whole entry, looked up): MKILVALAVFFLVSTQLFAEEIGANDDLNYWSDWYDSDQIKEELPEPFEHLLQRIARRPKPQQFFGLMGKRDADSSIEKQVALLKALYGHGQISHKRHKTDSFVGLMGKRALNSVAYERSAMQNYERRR

Sequence of YopB (nanodisc-embedded) (Yersinia pestis) (Q06114 whole entry): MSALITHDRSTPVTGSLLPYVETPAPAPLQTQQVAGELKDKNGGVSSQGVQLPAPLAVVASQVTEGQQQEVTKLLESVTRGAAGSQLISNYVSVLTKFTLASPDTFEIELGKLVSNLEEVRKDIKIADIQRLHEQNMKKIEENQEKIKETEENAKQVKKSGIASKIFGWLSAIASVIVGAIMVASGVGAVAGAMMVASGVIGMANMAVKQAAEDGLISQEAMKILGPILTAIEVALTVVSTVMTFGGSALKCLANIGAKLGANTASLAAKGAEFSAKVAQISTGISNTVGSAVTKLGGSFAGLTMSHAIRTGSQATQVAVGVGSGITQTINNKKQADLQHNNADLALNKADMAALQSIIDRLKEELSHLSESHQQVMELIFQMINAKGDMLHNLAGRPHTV
Sequence of LcrV-EGFP (P0C7U7 whole entry): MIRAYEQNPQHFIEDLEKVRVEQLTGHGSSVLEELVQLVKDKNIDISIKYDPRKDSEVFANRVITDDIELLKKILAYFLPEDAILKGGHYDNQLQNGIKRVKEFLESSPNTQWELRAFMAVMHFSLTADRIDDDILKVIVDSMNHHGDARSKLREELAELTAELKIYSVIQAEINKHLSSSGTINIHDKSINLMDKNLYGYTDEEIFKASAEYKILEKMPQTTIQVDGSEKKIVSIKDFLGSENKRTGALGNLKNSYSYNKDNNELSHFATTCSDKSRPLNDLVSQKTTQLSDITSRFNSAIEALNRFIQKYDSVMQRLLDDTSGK
Sequence of Neurokinin-1 receptor (NK1R, nanodisc-embedded) (P25103 whole entry): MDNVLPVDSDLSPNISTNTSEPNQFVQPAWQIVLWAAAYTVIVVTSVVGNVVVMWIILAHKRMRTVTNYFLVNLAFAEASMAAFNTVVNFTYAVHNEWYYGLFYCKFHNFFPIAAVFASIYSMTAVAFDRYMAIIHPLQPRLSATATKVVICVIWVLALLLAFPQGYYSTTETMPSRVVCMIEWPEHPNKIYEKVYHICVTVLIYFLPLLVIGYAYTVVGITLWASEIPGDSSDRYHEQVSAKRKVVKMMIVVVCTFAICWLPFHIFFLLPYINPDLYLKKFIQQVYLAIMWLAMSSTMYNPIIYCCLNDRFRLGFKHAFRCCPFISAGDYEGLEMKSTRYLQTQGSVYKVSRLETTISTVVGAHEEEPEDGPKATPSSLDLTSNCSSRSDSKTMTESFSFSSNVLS

For LcrV-EGFP (from UniProt P0C7U7), the Kd in data set [1] was 20 nM.

For “Neurokinin-1 receptor (NK1R, nanodisc-embedded) (from UniProt P25103)”, the equilibrium dissociation constant (Kd) in data set [2] was 83 nM.
